Measured values as given in patent publication US20230174641A1 (H LUNDBECK A S, published 2023).
Ends that are not written are not given here.

T1: human ACTH 1-39 (human)
T1 peptide: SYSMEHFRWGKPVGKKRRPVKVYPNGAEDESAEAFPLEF

T2: N-term biotinylated human ACTH 1-39 (human, N-terminal biotin)
T2 construct: also called huACTH 1-39
T2 peptide: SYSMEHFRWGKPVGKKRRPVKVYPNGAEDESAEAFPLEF

T3: human ACTH 1-13 (human, ends and bridges not checked)
T3 construct: also called human alpha-MSH (ACTH 1-13); alpha-MSH
T3 peptide: SYSMEHFRWGKPV

T4: human ACTH 18-39 (human)
T4 construct: also called CLIP; CLIP (ACTH 18-39)
T4 peptide: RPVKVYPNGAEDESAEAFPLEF


Columns and labels:
[1] = target: T1, human ACTH 1-39; assay: cell-based or functional assay
[2] = target: T1, human ACTH 1-39; assay: cell-based or functional assay
[3] = target: T2, N-term biotinylated human ACTH 1-39; assay: ELISA, biotin-ACTH 1-39 on neutravidin plate
Method: All incubations were done at room temperature. […] The plates were then blocked using a blocking solution (PBS, 0.5% fish skin gelatin, 0.05% Tween-20) for approximately one hour. The blocking solution was then removed and the plates were then incubated with a dilution series of the antibody being tested for approximately one hour. At the end of this incubation, the plate was washed three times with wash buffer and further incubated with a secondary antibody containing solution (Peroxidase conjugated AffmiPure™ F(ab′)₂ fragment goat anti-human IgG, Fc fragment specific (Jackson Immunoresearch) for approximately 45 minutes and washed three times. Next a substrate solution (TMB peroxidase substrate, BioFx®, SurModics, Eden Prairie, Minn.) was added and incubated for 3 to 5 minutes in the dark. The reaction was stopped by addition of 0.5 M HCl and the plate was read at 450 nm in a plate-reader.

[4] = target: T1, human ACTH 1-39; assay: cell-based or functional assay
[5] = target: T1, human ACTH 1-39; assay: cell-based or functional assay
[6] = target: T3, human ACTH 1-13; assay: SPR ProteOn, antibody immobilised
Method: (§1) Antibody was immobilized to the surface of general amine coupling (GLC or GLM) Chips (Bio-Rad). […] At the chosen concentrations of antigen (ranging from 454 ng/ml to 5.6 ng/ml) association times of 200 seconds and dissociation times of 30-200 minutes were used with the ProteOnTM Manager Software (v3.1.0.6, Bio-Rad) to group and fit data using a 1:1 Langmuir binding model. Surfaces were regenerated between analyte queries using 10 mM glycine at pH 2.0. Data repeated across a single density was averaged and a single KD and standard propagation of error calculated for each antibody.

[7] = target: T1, human ACTH 1-39; assay: SPR ProteOn, antibody immobilised
Method: as §1

[8] = target: T4, human ACTH 18-39; assay: SPR ProteOn, antibody immobilised
Method: as §1

[9] = target: T4, human ACTH 18-39; assay: SPR ProteOn, antibody immobilised; SPR, antibody on the chip, CLIP alone (Table 5)
Method: as §1

[10] = target: T3, human ACTH 1-13; assay: SPR ProteOn, antibody immobilised; SPR, antibody on the chip, alpha-MSH alone (Table 6)
Method: as §1

MC2R IC50 [1] [nM]	Y1 Cells IC50 [2] [nM]	EC50 [3] [nM]	MC1R IC50 [4] [nM]	MC3R IC50 [5] [nM]	MC4R IC50 [5] [nM]	MC5R IC50 [5] [nM]	koff [6] [s⁻¹]	Kd [7] [nM]	koff [7] [s⁻¹]	Kd [8] [nM]	koff [8] [s⁻¹]	Binder	also measured
0.03	1.53		1.49	108	49.4	4200	> 0.1	0.04	4e-05			Ab11 (antibody, human IgG1, kappa, N297A, V domains shown, rabbit/human chimeric antibody, made in HEK-293) VH: QSLEESGGRLVTPGTSLTLTCTASGFSLSAYDILWVRQAPGKGLESIGMMYDDGDTYYATWAKGRFIISRTSTTMDLKIISPTTEDTATYFCVKGVSNIWGQGTLVTVSS VL: DIVMTQIPASVEAAVGGTVTIKCQASQSIDSSLAWYQQKPGQPPKLLIYSASTLASGVPSRFKGSGSGTEFTLTIGDLECADAATYYCQSYDGSSSSYYGIGFGGGTEVVVKR	Kd [9]: 54 nM; koff [9]: 0.086 s⁻¹; kon [9]: 1.6e+06 M⁻¹ s⁻¹; kon [7]: 1e+06 M⁻¹ s⁻¹
0.05	2.68	0.76	1.66				> 0.1					Ab12 (antibody, human IgG1, kappa, N297A, V domains shown, rabbit/human chimeric antibody, made in HEK-293) VH: QSVEESGGRLVTPGTPLTLTCTVSGSSLSDYDMIWVRQAPGKGLESIGIIYDDGDTYYATWAKGRFTISKTSTTVDLRIISPTTEDTATYFCVKGVSNMWGPGTLVTVSS VL: DVVMTQTPSSVSAAVGGTVTIKCQASQSIGSSLAWYQQKPGQRPKLLIYAASTLASGVPSRFKGSGSGTEFTLTISDLECADAATYYCQSYDGSSSSSYGVGFGGGTEVVVKR	Kd [9]: 27 nM; koff [9]: 0.024 s⁻¹; kon [9]: 890000 M⁻¹ s⁻¹
										20		Ab11A.H (antibody, human IgG1, kappa, N297A, V domains shown) VH: EVQLVESGGGLVQPGGSLRLSCAASGFTVSAYDILWVRQAPGKGLESIGMMYDDGDTYYATSAKGRFTISRDNSKNTLYLQMNSLRAEDTAVYYCVKGVSNIWGQGTLVTVSS VL: DIQMTQSPSTLSASVGDRVTITCQASQSIGSSLAWYQQKPGKAPKLLIYSASTLASGVPSRFSGSGSGTEFTLTISSLQPDDFATYYCQSYEGSSSSYYGIGFGGGTKVEIKR	
										20		Ab11.H (antibody, human IgG1, kappa, N297A, V domains shown, humanized form of Ab11) VH: EVQLVESGGGLVQPGGSLRLSCAASGFTVSAYDILWVRQAPGKGLESIGMMYDDGDTYYATSAKGRFTISRDNSKNTLYLQMNSLRAEDTAVYYCVKGVSNIWGQGTLVTVSS VL: DIQMTQSPSTLSASVGDRVTITCQASQSIDSSLAWYQQKPGKAPKLLIYSASTLASGVPSRFSGSGSGTEFTLTISSLQPDDFATYYCQSYDGSSSSYYGIGFGGGTKVEIKR	
										8.8		Ab12.H (antibody, human IgG1, kappa, N297A, V domains shown, humanized form of Ab12) VH: not shown VL: DIQMTQSPSTLSASVGDRVTITCQASQSIGSSLAWYQQKPGKAPKLLIYAASTLASGVPSRFSGSGSGTEFTLTISSLQPDDFATYYCQSYDGSSSSSYGVGFGGGTKVEIKR	
										13		Ab10.H (antibody, human IgG1, kappa, N297A, V domains shown, humanized form of Ab10) VH: EVQLVESGGGLVQPGGSLRLSCAASGFTVSSADMIWVRQAPGKGLESIGMIYDDGDTYYATSAKGRFTISRDNSKNTLYLQMNSLRAEDTAVYYCVKGVSSVWGQGTLVTVSS VL: DIQMTQSPSTLSASVGDRVTITCQASENIYRSLAWYQQKPGKAPKLLIYSASTLASGVPSRFSGSGSGTEFTLTISSLQPDDFATYYCQSYDGSSSSSYGVGFGGGTKVEIKR	

Continued, binder first:

Binder	MC2R IC50 [1] [nM]	Y1 Cells IC50 [2] [nM]	EC50 [3] [nM]	MC1R IC50 [4] [nM]	MC3R IC50 [5] [nM]	MC4R IC50 [5] [nM]	MC5R IC50 [5] [nM]	koff [6] [s⁻¹]	Kd [7] [nM]	koff [7] [s⁻¹]	Kd [8] [nM]	koff [8] [s⁻¹]	also measured
Ab1 (antibody, human IgG1, kappa, N297A, V domains shown, rabbit/human chimeric antibody, made in HEK-293) VH: QSVKESGGRLVTPGTPLTLTCTVSGFSLSNYDMIWVRQAPGKGLESIGMIYDDGDTYYASWAKGRFTISKTSTTVDLKIISPTTEDTATYFCVKGVSNHWGPGTLVTVSS VL: DVVMTQTPASVEAAVGGTVTIKCQASQSISSYLAWYQQKPGQPPKLLIYSASTLASGVPSRFKGRGSGTEFTLTISDLECADAATYYCQSYDGSSGSSYGVGFGGGTEVVVKR	0.14	2.36	0.48	2.38	101	56.4	1100	> 0.1	0.19	0.00019	150	0.092	kon [8]: 620000 M⁻¹ s⁻¹
Ab4 (antibody, human IgG1, kappa, N297A, V domains shown, rabbit/human chimeric antibody, made in HEK-293) VH: QSVEESGGRLVTPGTPLTLTYTVSGFSLSKHDMIWVRQAPGKGLESIGIIYDDGDTYYANWAKGRFTISKTSTTVDLKIISPTTEDTATYFCVKGVSNIWGPGTLVTVSS VL: DVVMTQTPASVEAAVGGTVTIKCRASQSISVYLAWYQQKAGQPPKLLIYQASKLASGVPSRFKGSGSGTEFTLTISDLECADAATYYCQSYDGSSSSSYGVGFGGGTEVVVKR	0.46	17.2	0.39	5.73	113	65.8	1300	> 0.1	0.27	0.00027	270	0.19	kon [7]: 1e+06 M⁻¹ s⁻¹; kon [8]: 710000 M⁻¹ s⁻¹
Ab2.H (antibody, human IgG1, kappa, N297A, V domains shown, humanized form of Ab2) VH: EVQLVESGGGLVQPGGSLRLSCAASGFTVSKYDMIWVRQAPGKGLESIGIIYDDGDTYYASSAKGRFTISRDNSKNTLYLQMNSLRAEDTAVYYCVKGVSNIWGQGTLVTVSS VL: DIQMTQSPSTLSASVGDRVTITCQASQSISNYLAWYQQKPGKAPKLLIYSASTLASGVPSRFSGSGSGTEFTLTISSLQPDDFATYYCQSYEGSSSSSYGVGFGGGTKVEIKR											28		
Ab1.H (antibody, human IgG1, kappa, N297A, V domains shown, humanized form of Ab1) VH: EVQLVESGGGLVQPGGSLRLSCAASGFTVSNYDMIWVRQAPGKGLESIGMIYDDGDTYYASSAKGRFTISRDNSKNTLYLQMNSLRAEDTAVYYCVKGVSNHWGQGTLVTVSS VL: DIQMTQSPSTLSASVGDRVTITCQASQSISSYLAWYQQKPGKAPKLLIYSASTLASGVPSRFSGSGSGTEFTLTISSLQPDDFATYYCQSYDGSSGSSYGVGFGGGTKVEIKR											20		
Ab4.H (antibody, human IgG1, kappa, N297A, V domains shown, humanized form of Ab4) VH: EVQLVESGGGLVQPGGSLRLSCAASGFTVSKHDMIWVRQAPGKGLESIGIIYDDGDTYYANSAKGRFTISRDNSKNTLYLQMNSLRAEDTAVYYCVKGVSNIWGQGTLVTVSS VL: DIQMTQSPSTLSASVGDRVTITCRASQSISVYLAWYQQKPGKAPKLLIYQASKLASGVPSRFSGSGSGTEFTLTISSLQPDDFATYYCQSYDGSSSSSYGVGFGGGTKVEIKR											92		
Ab7 (antibody, human IgG1, kappa, N297A, V domains shown, rabbit/human chimeric antibody, made in HEK-293) VH: QSVEESGGRLVTPGTPLTLTCTVSGFSLSSYAMSWVRQAPGEGLEWIGIISDSGSTYYASWAKGRFTISKTSTTVDLRITSPTTEDTATYFCAREPEYGYDDYGDWVSDLWGQGTLVTVSS VL: DIVMTQTPASVEAAVGGTVTIKCQASQSISDYLSWYQQKPGQPPKLLIYRASTLASGVPSRFKGSGSGTQFTLTISDLECADAATYYCQSYYYSSSITYRNAFGGGTEVVVKR	0.09	2.49	2.24	1.29	64.2	49.7	1100		0.037	3.7e-05		> 0.1	Kd [10]: 54 nM; koff [10]: 0.013 s⁻¹; kon [10]: ~240000 M⁻¹ s⁻¹; kon [7]: 1e+06 M⁻¹ s⁻¹
Ab9 (antibody, human IgG1, kappa, N297A, V domains shown, rabbit/human chimeric antibody, made in HEK-293) VH: QSVEESGGRLVTPGTPLTLTCTVSGFSLNSYAMSWVRQAPGEGLEWIGIISDSGRTYYASWAKGRFTISKTSTTVDLKITSPTTEDTATYFCAREPEYGYDDYGDWVSDLWGPGTLVTVSS VL: DVVMTQTPASVEAAVGGTVTIKCQASQSISSYLSWYQQKPGQPPKLLIYRASTLASGVPSRFKGSGSGTQFTLTISDLECADAATYYCQSYYYSSSITYRNAFGGGTEVVVKR	0.12	3.47	2.05									> 0.1	Kd [10]: 63 nM; koff [10]: 0.009 s⁻¹; kon [10]: ~140000 M⁻¹ s⁻¹
